Laboratory results as given in US20230140397A1 (JIANGSU HENGRUI PHARMACEUTICALS, published 2023).

Assays:
[1] = molecular target: T1, prostate specific membrane antigen (PSMA) on prostate cancer cells (human, UniProt Q04609 1-750); test: cell-based or functional assay
[2] = molecular target: T1, prostate specific membrane antigen …; test: flow cytometry on 22Rv1 cells, FITC anti-human IgG secondary
Procedure: (§1) In this experiment, fluorescence signals of antibodies on the cell surface were detected, and the binding of the antibodies was evaluated according to the intensity of the fluorescence signals.
(§2) The cells were incubated with an FITC-labeled goat anti-human IgG (H+L) secondary antibody (Jackson Immuno Research, 109-095-003) at 4° C. for 30 min, and then excess antibodies were washed off. The fluorescence signals on the cell surface were read using BD CantoII. The results are shown in Table 2, FIG. 1A, FIG. 1B, FIG. 1C, FIG. 1D, and FIG. 1E.

[3] = molecular target: T1, prostate specific membrane antigen …; test: flow cytometry on LNCaP cells, FITC anti-human IgG secondary
Procedure: as §1, §2

[4] = molecular target: T1, prostate specific membrane antigen …; test: flow cytometry on MDA PCa 2b cells, FITC anti-human IgG secondary
Procedure: as §1, §2

[5] = molecular target: T1, prostate specific membrane antigen …; test: flow cytometry on MDA PCa 2b cells (PSMA-expressing), FITC anti-human IgG detection

T1 sequence (Q04609 whole entry): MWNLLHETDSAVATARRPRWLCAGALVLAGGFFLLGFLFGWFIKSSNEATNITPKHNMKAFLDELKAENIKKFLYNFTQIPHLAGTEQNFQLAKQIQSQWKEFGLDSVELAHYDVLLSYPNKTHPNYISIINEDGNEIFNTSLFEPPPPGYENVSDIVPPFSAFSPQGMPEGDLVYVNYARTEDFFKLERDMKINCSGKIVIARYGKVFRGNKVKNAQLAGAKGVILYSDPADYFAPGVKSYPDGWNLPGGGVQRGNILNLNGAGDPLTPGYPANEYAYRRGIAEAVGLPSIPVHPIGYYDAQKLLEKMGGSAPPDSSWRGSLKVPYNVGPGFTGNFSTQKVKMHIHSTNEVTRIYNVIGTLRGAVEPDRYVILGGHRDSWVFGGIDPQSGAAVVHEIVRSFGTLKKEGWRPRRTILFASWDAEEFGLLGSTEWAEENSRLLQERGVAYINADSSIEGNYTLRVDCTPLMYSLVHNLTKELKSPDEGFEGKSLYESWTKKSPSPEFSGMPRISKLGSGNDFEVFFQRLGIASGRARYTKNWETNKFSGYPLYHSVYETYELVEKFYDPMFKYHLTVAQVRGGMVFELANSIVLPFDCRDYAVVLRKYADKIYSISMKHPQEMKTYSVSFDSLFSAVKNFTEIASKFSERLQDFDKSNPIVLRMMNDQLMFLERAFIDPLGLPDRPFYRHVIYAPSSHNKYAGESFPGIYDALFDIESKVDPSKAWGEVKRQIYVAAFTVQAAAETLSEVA

Binder	Endocytic activity of different cells to the antibodies (IC50, nM); DT3C-mediated cell killing, 22RV1 cells [1] [nM]	EC50 [2] [nM]	EC50 [3] [nM]	EC50 [4] [nM]	binding result [5]
Antibody PM (intact full-length anti-PSMA antibody PM, variable regions of AB-PG1-XG1-006) (antibody, V domains shown, Full-length IgG1/kappa (VH-CH1-Fc/VK-CL), expressed in HEK293E cells; also called AB-PG1-XG1-006 (variable regions)) VH: QVQLVESGGGVVQPGRSLRLSCAASGFAFSRYGMHWVRQAPGKGLEWVAVIWYDGSNKYYADSVKGRFTISRDNSKNTQYLQMNSLRAEDTAVYYCARGGDFLYYYYYGMDVWGQGTTVTVSS VL: DIQMTQSPSSLSASVGDRVTITCRASQGISNYLAWYQQKTGKVPKFLIYEASTLQSGVPSRFSGGGSGTDFTLTISSLQPEDVATYYCQNYNSAPFTFGPGTKVDIKR	0.0856	0.676	1.42	1.08	
ADC-2 (exemplary product of the conjugate of formula PM-9-A, n=6.63) (antibody, V domains shown, drug-linker compound 9-A coupled via a mercapto group on cysteine after TCEP reduction; positions not given; mean n=6.63 per antibody (UV-Vis); drug-linker compound 9-A (exatecan analog with linking unit) coupled via a mercapto group on cysteine after TCEP reduction; positions not given; mean n=6.63 per antibody (UV-Vis), also called PSMA ADC) VH: QVQLVESGGGVVQPGRSLRLSCAASGFAFSRYGMHWVRQAPGKGLEWVAVIWYDGSNKYYADSVKGRFTISRDNSKNTQYLQMNSLRAEDTAVYYCARGGDFLYYYYYGMDVWGQGTTVTVSS VL: DIQMTQSPSSLSASVGDRVTITCRASQGISNYLAWYQQKTGKVPKFLIYEASTLQSGVPSRFSGGGSGTDFTLTISSLQPEDVATYYCQNYNSAPFTFGPGTKVDIKR		0.571	0.938	0.718	
ADC-10 (exemplary product of the conjugate of formula PM-VcMMAE, n=3.92) (antibody, V domains shown, VcMMAE coupled via a mercapto group on cysteine after TCEP reduction; positions not given; mean n=3.92 per antibody (CE-SDS); VcMMAE (CAS 646502-53-6) coupled via a mercapto group on cysteine after TCEP reduction; positions not given; mean n=3.92 per antibody (CE-SDS), also called positive ADC-10) VH: QVQLVESGGGVVQPGRSLRLSCAASGFAFSRYGMHWVRQAPGKGLEWVAVIWYDGSNKYYADSVKGRFTISRDNSKNTQYLQMNSLRAEDTAVYYCARGGDFLYYYYYGMDVWGQGTTVTVSS VL: DIQMTQSPSSLSASVGDRVTITCRASQGISNYLAWYQQKTGKVPKFLIYEASTLQSGVPSRFSGGGSGTDFTLTISSLQPEDVATYYCQNYNSAPFTFGPGTKVDIKR		0.689	1.58	0.954	
Lmab-9-A (control antibody-drug conjugate of labeuzumab with compound 9-A, n=7.07) (antibody, human IgG1, kappa, V domains shown, drug-linker compound 9-A coupled to cysteine after TCEP reduction; positions not given; mean n=7.07 per antibody (UV-Vis), also called control ADC Lmab-9-A; ADCLmab-9-A) VH: EVQLVESGGGVVQPGRSLRLSCSASGFDFTTYWMSWVRQAPGKGLEWIGEIHPDSSTINYAPSLKDRFTISRDNAKNTLFLQMDSLRPEDTGVYFCASLYFGFPWFAYWGQGTPVTVSS VL: DIQLTQSPSSLSASVGDRVTITCKASQDVGTSVAWYQQKPGKAPKLLIYWTSTRHTGVPSRFSGSGSGTDFTFTISSLQPEDIATYYCQQYSLYRSFGQGTKVEIKR					no binding
